# Reference: the DeepSol protein solubility set
# Experiment: soluble on expression in E. coli; label from the status in PepcDB or PDB records
row,Sequence,soluble on expression in E. coli
1,YPHHLGTSPRHPLNSGTEMAGGAWGRLACYLEFLKKEELKEFQLLLANKAHSRSSSGETPAQPEKTSGMEVASYLVAQYGEQRAWDLALHTWEQMGLRSLCAQAQEGAGHSPSFPYSPSEPHLGSPSQPTSTAVLMPWIHELPAGCTQGSERRVLRQLPDTSGRRWREISASLLYQALPSSPDHESPSQESPNAPTSTAVLGSWGSPPQPSLAPREQEAPGTQWPLDETSGIYYTEIREREREKSEKGRPPWAAVVGTPPQAHTSLQPHHHPWEPSVRESLCSTWPWKNEDFNQKFTQLLLLQRPHPRSQDPLVKRSWPDYVEENRGHLIEIRDLFGPGLDTQEPRIVILQGAAGIGKSTLARQVKEAWGRGQLYGDRFQHVFYFSCRELAQSKVVSLAELIGKDGTATPAPIRQILSRPERLLFILDGVDEPGWVLQEPSSELCLHWSQPQPADALLGSLLGKTILPEASFLITARTTALQNLIPSLEQARWVEVLGFSESSRKEYFYRYFTDERQAIRAFRLVKSNKELWALCLVPWVSWLACTCLMQQMKRKEKLTLTSKTTTTLCLHYLAQALQAQPLGPQLRDLCSLAAEGIWQKKTLFSPDDLRKHGLDGAIISTFLKMGILQEHPIPLSYSFIHLCFQEFFAAMSYVLEDEKGRGKHSNCIIDLEKTLEAYGIHGLFGASTTRFLLGLLSDEGEREMENIFHCRLSQGRNLMQWVPSLQLLLQPHSLESLHCLYETRNKTFLTQVMAHFEEMGMCVETDMELLVCTFCIKFSRHVKKLQLIEGRQHRSTWSPTMVVLFRWVPVTDAYWQILFSVLKVTRNLKELDLSGNSLSHSAVKSLCKTLRRPRCLLETLRLAGCGLTAEDCKDLAFGLRANQTLTELDLSFNVLTDAGAKHLCQRLRQPSCKLQRLQLVSCGLTSDCCQDLASVLSASPSLKELDLQQNNLDDVGVRLLCEGLRHPACKLIRLGLDQTTLSDEMRQELRALEQEKPQLLIFSRRKPSVMTPTEGLDTGEMSNSTSSLKRQRLGSERAASHVAQANLKLLDVSKIFPIAEIAEESSPEVVPVELLCVPSPASQGDLHTKPLGTDDDFWGPTGPVATEVVDKEKNLYRVHFPVAGSYRWPNTGLCFVMREAVTVEIEFCVWDQFLGEINPQHSWMVAGPLLDIKAEPGAVEAVHLPHFVALQGGHVDTSLFQMAHFKEEGMLLEKPARVELHHIVLENPSFSPLGVLLKMIHNALRFIPVTSVVLLYHRVHPEEVTFHLYLIPSDCSIRKELELCYRSPGEDQLFSEFYVGHLGSGIRLQVKDKKDETLVWEALVKPGDLMPATTLIPPARIAVPSPLDAPQLLHFVDQYREQLIARVTSVEVVLDKLHGQVLSQEQYERVLAENTRPSQMRKLFSLSQSWDRKCKDGLYQALKETHPHLIMELWEKGSKKGLLPLSS,soluble
2,YTVEPVQDGERSVTLRRAGGTPLVAAMYHLPAAGSPDFVGLDLAATILADTPSGRLYHALVPTKLASGVFGFTMDQLDPGLAMFGAQLQPGMDQDKALQTLTATLESLSSKPFSQEELERARSKWLTAWQQTYADPEKVGVALSEAIASGDWRLFFLQRDRVRDAKLDDVQRAAVAYLVRSNRTEGRYIPTEKPQRAPLAQRADLAAV,soluble
3,YWGPLDVGEAKSLPGMEDPKLVYIPSIAPSNMVLYRGDKYSELDGKILVGALKLTHINVVGINDGKLTESQRLLEKLGERIRDITISPDGYIYFSTDSGKIFRLTEQ,not soluble
